Measured values from the Human Domainome abundance scans (Beltran et al. 2025).
± gives the uncertainty stated by the source.

B1: Zinc finger homeobox protein 3, residues 2643 to 2698; numbered along this chain, Q15911 (parent)
chain: RLRTTITPEQLEILYQKYLLDSNPTRKMLDHIAHEVGLKKRVVQVWFQNTRARERK

Variants of: B1
Assay: abundance fitness (aPCA) (normalised: wild type 0, dead -1); higher = more abundant; growth selection in yeast, the domain comes from the species named
Conditions: Homo sapiens

Abundance fitness of substitutions, site by site:
L11: K -0.143 ± 0.12, M -0.032 ± 0.12, G -0.02 ± 0.072, P -0.494 ± 0.14, Q -0.133 ± 0.11, C -0.648 ± 0.14, F -0.341 ± 0.14, S 0.022 ± 0.09, E 0.026 ± 0.11, V -0.021 ± 0.076, T -0.117 ± 0.14, Y -0.024 ± 0.15, I -0.224 ± 0.19, W -0.11 ± 0.097, R 0.049 ± 0.074, D 0.17 ± 0.11, H 0.028 ± 0.13, N 0.305 ± 0.25
Y15: A -0.202 ± 0.096, M -0.049 ± 0.11, S 0.138 ± 0.094, F -0.444 ± 0.17, V -0.123 ± 0.081, C -0.368 ± 0.13, T -0.007 ± 0.12, W 0.072 ± 0.096, H -0.152 ± 0.16, K 0.051 ± 0.12, R 0.032 ± 0.074, L 0.016 ± 0.09, Q 0.244 ± 0.1, G 0.126 ± 0.075, I 0.183 ± 0.22
T25: C -0.191 ± 0.12, G -0.394 ± 0.074, E -0.081 ± 0.099, K -0.506 ± 0.15, Y -0.908 ± 0.32, Q -0.505 ± 0.16, A -0.243 ± 0.087, D 0.189 ± 0.11, I -0.502 ± 0.14, N -0.206 ± 0.2, R -0.753 ± 0.093, M -0.256 ± 0.12, V -0.349 ± 0.082, W -0.951 ± 0.13, P -0.145 ± 0.12, S -0.267 ± 0.089, F -0.605 ± 0.23, L -0.552 ± 0.095, H -0.448 ± 0.19
L20: P -1.08 ± 0.17, H -0.286 ± 0.13, Y -0.466 ± 0.19, N -0.27 ± 0.14, C -0.022 ± 0.12, E -0.079 ± 0.15, D -0.226 ± 0.16, G -0.049 ± 0.086, F -0.111 ± 0.13, K -0.147 ± 0.12, M 0.093 ± 0.11, R -0.331 ± 0.077, Q 0.109 ± 0.1, I -0.056 ± 0.17, T -0.057 ± 0.11, W -0.227 ± 0.088, A -0.211 ± 0.096, V 0.002 ± 0.094
Q10: E -0.516 ± 0.15, G -0.854 ± 0.094, N -0.385 ± 0.08, K -0.432 ± 0.1, W -0.856 ± 0.12, A -0.212 ± 0.086, T -0.296 ± 0.076, F -0.959 ± 0.095, L -0.646 ± 0.072, R -0.755 ± 0.083, V -0.321 ± 0.078, Y -0.792 ± 0.084, I -0.27 ± 0.079, D 0.224 ± 0.086, M -0.411 ± 0.09, H -0.356 ± 0.074, C -0.52 ± 0.086, S -0.48 ± 0.069, P -0.717 ± 0.081
P24: N -0.623 ± 0.17, Q -0.354 ± 0.14, A -0.82 ± 0.096, Y -0.548 ± 0.19, C -0.96 ± 0.17, R -0.828 ± 0.082, H -0.687 ± 0.19, F -0.644 ± 0.17, V -0.785 ± 0.088, T -0.957 ± 0.15, M -0.777 ± 0.16, S -0.764 ± 0.11, K -0.935 ± 0.21, G -0.857 ± 0.088, L -0.79 ± 0.11, D -0.634 ± 0.13, E -0.78 ± 0.14, W -0.165 ± 0.088, I -0.747 ± 0.17
L19: I -0.583 ± 0.17, D -0.211 ± 0.13, C -0.032 ± 0.12, V -0.12 ± 0.11, N -0.422 ± 0.16, M 0.039 ± 0.13, P -0.535 ± 0.18, H -0.14 ± 0.15, S -0.154 ± 0.092, Q -0.233 ± 0.13, G -0.175 ± 0.078, R -0.087 ± 0.078, Y -0.339 ± 0.16, F -0.36 ± 0.15, E -0.254 ± 0.14, A -0.075 ± 0.11, K -0.022 ± 0.18, W -0.365 ± 0.11
K27: P 0.16 ± 0.1, A 0.018 ± 0.08, M -0.177 ± 0.11, R -0.444 ± 0.078, D 0.229 ± 0.15, N -0.246 ± 0.18, V -0.007 ± 0.081, I -0.028 ± 0.14, T 0.036 ± 0.093, C -0.342 ± 0.17, F -0.293 ± 0.16, E 0.243 ± 0.094, G 0.077 ± 0.074, Y -0.241 ± 0.18
D21: K -0.924 ± 0.2, M -0.22 ± 0.14, I -0.533 ± 0.21, F -0.373 ± 0.23, S -0.417 ± 0.11, G -0.321 ± 0.087, C -0.426 ± 0.15, E -0.008 ± 0.14, P -0.604 ± 0.15, Q -0.255 ± 0.17, W -0.741 ± 0.12, R -0.803 ± 0.1, V -0.407 ± 0.099, Y -0.675 ± 0.22, L -0.553 ± 0.11
K17: L -0.303 ± 0.099, A -0.08 ± 0.093, E 0.007 ± 0.12, Y -0.096 ± 0.26, D -0.651 ± 0.2, W -0.056 ± 0.095, R 0.099 ± 0.078, M 0.114 ± 0.13, G -0.528 ± 0.083, F 0.528 ± 0.31, N 0.228 ± 0.15, T -0.59 ± 0.16, V -0.52 ± 0.093, I -0.628 ± 0.44, P -1.05 ± 0.21
I13: K -0.096 ± 0.12, F 0.119 ± 0.14, V 0.057 ± 0.088, H 0.067 ± 0.18, N -0.287 ± 0.16, P -0.951 ± 0.17, T -0.01 ± 0.1, S -0.184 ± 0.084, L -0.084 ± 0.085, W -0.172 ± 0.091, M -0.253 ± 0.13, E -0.339 ± 0.12, C -0.058 ± 0.094, Y 0.012 ± 0.14, A -0.079 ± 0.098, R -0.123 ± 0.082, Q -0.095 ± 0.12, G -0.24 ± 0.077
M28: I -0.557 ± 0.43
Y18: P -0.847 ± 0.19, M -0.373 ± 0.14, I -0.62 ± 0.23, L -0.552 ± 0.12, V -0.644 ± 0.1, D -0.96 ± 0.17, H -1.03 ± 0.35, K -0.662 ± 0.22, N -0.705 ± 0.32, C -0.696 ± 0.13, R -0.865 ± 0.11, F 0.251 ± 0.17, W -0.401 ± 0.13, G -0.899 ± 0.093, E -0.948 ± 0.19, Q -0.698 ± 0.2, T -1.03 ± 0.22
L29: E -0.159 ± 0.14, G -0.683 ± 0.092, A -0.552 ± 0.099, D -0.805 ± 0.15, I 0.167 ± 0.13, M 0.028 ± 0.12, C -0.056 ± 0.11, K -0.695 ± 0.16, F 0.069 ± 0.12, H -0.766 ± 0.2
R26: W 0.401 ± 0.09, P 0.35 ± 0.089, L 0.266 ± 0.081, E 0.419 ± 0.096, G 0.386 ± 0.072, A 0.434 ± 0.088, S 0.428 ± 0.08, F 0.029 ± 0.1, I 0.323 ± 0.13, C 0.306 ± 0.1, N 0.339 ± 0.15, V 0.383 ± 0.078, D 0.458 ± 0.13, Y -0.031 ± 0.2, H 0.324 ± 0.16, K 0.123 ± 0.12
Q16: G -0.113 ± 0.077, S -0.213 ± 0.1, P -1.08 ± 0.21, I -0.073 ± 0.26, M 0.225 ± 0.11, F 0.042 ± 0.22, T -0.021 ± 0.13, Y -0.436 ± 0.16, D -0.246 ± 0.13, V 0.357 ± 0.08, A 0.052 ± 0.086, W -0.615 ± 0.13, R -0.174 ± 0.082, L 0.572 ± 0.096, H -0.267 ± 0.19, K -0.106 ± 0.13, N -0.226 ± 0.21
S22: R -0.526 ± 0.082, G -0.034 ± 0.07, W -0.491 ± 0.11, T -0.315 ± 0.13, P 0.099 ± 0.13, C -0.136 ± 0.11, D 0.075 ± 0.12, K -0.178 ± 0.14, V -0.395 ± 0.081, N -0.273 ± 0.12, H -0.24 ± 0.17, I -0.589 ± 0.15, M -0.247 ± 0.15, Q 0.037 ± 0.14, L -0.643 ± 0.1, A -0.003 ± 0.086, Y -0.624 ± 0.23
L14: W -0.758 ± 0.11, K -0.899 ± 0.16, T -1.04 ± 0.17, C -0.886 ± 0.18, V -0.926 ± 0.12, R -0.847 ± 0.089, E -0.791 ± 0.12, S -0.763 ± 0.1, H -0.793 ± 0.26, D -0.568 ± 0.25, P -0.879 ± 0.24, G -0.956 ± 0.086, M -0.17 ± 0.11, Q -0.895 ± 0.14, N -1.14 ± 0.24, I -0.951 ± 0.27, A -0.908 ± 0.13
N23: G -0.276 ± 0.091, Y -0.1 ± 0.27, I -0.414 ± 0.23, H -0.354 ± 0.26, F 0.149 ± 0.18, A -0.23 ± 0.13, W -0.155 ± 0.11, V -0.37 ± 0.098, S -0.113 ± 0.11, P -0.965 ± 0.22, R -0.118 ± 0.087, L -0.389 ± 0.12, T -0.379 ± 0.16, C -0.594 ± 0.2, K -0.335 ± 0.17, Q 0.066 ± 0.14, D -0.336 ± 0.27
E12: T 0.041 ± 0.1, W -0.749 ± 0.12, H -0.069 ± 0.16, L -0.188 ± 0.086, A -0.07 ± 0.082, K -0.625 ± 0.21, G -0.228 ± 0.077, V -0.396 ± 0.088, F -0.282 ± 0.13, Q -0.049 ± 0.13, P -0.87 ± 0.15, N -0.074 ± 0.18, Y -0.454 ± 0.15, S -0.114 ± 0.088, D -0.109 ± 0.12, C -0.111 ± 0.11, I -0.438 ± 0.19, M 0.335 ± 0.11
E9: Y -0.286 ± 0.08, P -0.293 ± 0.082, T -0.211 ± 0.085, Q -0.038 ± 0.1, N -0.218 ± 0.1, R -0.277 ± 0.077, H -0.229 ± 0.082, D -0.042 ± 0.092, W -0.516 ± 0.11, S -0.267 ± 0.071, V -0.246 ± 0.075, F -0.495 ± 0.077, M -0.272 ± 0.1, L -0.31 ± 0.069, I -0.241 ± 0.078, G -0.234 ± 0.081
